Legend:
Test in all cases: cell-based or functional assay
S蛋白, SARS-CoV-2 Delta = S蛋白, SARS-CoV-2 Delta (SARS-CoV-2 Delta)
S蛋白, SARS-CoV-2 BA.1 [1] = biological target: S蛋白, SARS-CoV-2 BA.1 (SARS-CoV-2 BA.1)
S蛋白, SARS-CoV-2 BA.2.75 [2] = biological target: T1, S蛋白, SARS-CoV-2 BA.2.75 (SARS-CoV-2 BA.2.75)
S蛋白, SARS-CoV-2 BA.4/5 [3] = biological target: S蛋白, SARS-CoV-2 BA.4/5 (SARS-CoV-2 BA.4/5)
S蛋白, SARS-CoV-2 BF.7 [4] = biological target: S蛋白, SARS-CoV-2 BF.7 (SARS-CoV-2 BF.7)
S蛋白, SARS-CoV-2 BQ.1 [5] = biological target: S蛋白, SARS-CoV-2 BQ.1 (SARS-CoV-2 BQ.1)
S蛋白, SARS-CoV-2 BQ.1.1 [6] = biological target: S蛋白, SARS-CoV-2 BQ.1.1 (SARS-CoV-2 BQ.1.1)
S蛋白, SARS-CoV-2 XBB [7] = biological target: S蛋白, SARS-CoV-2 XBB (SARS-CoV-2 XBB)
S蛋白, SARS-CoV-2 XBB.1.5 [8] = biological target: T2, S蛋白, SARS-CoV-2 XBB.1.5 (SARS-CoV-2 XBB.1.5)
S蛋白, SARS-CoV-2 BA.1 [9] = biological target: S蛋白, SARS-CoV-2 BA.1 (SARS-CoV-2 BA.1); remark: listed apart in the source
S蛋白, SARS-CoV-2 BA.1.1 = S蛋白, SARS-CoV-2 BA.1.1 (SARS-CoV-2 BA.1.1)
S蛋白, SARS-CoV-2 BA.2 = S蛋白, SARS-CoV-2 BA.2 (SARS-CoV-2 BA.2)
S蛋白, SARS-CoV-2 BA.2.75 [10] = biological target: T1, S蛋白, SARS-CoV-2 BA.2.75; remark: listed apart in the source
S蛋白, SARS-CoV-2 BA.3 = S蛋白, SARS-CoV-2 BA.3 (SARS-CoV-2 BA.3)
S蛋白, SARS-CoV-2 BA.4/5 [11] = biological target: S蛋白, SARS-CoV-2 BA.4/5 (SARS-CoV-2 BA.4/5); remark: listed apart in the source
S蛋白, SARS-CoV-2 BF.7 [12] = biological target: S蛋白, SARS-CoV-2 BF.7 (SARS-CoV-2 BF.7); remark: listed apart in the source
S蛋白, SARS-CoV-2 BQ.1 [13] = biological target: S蛋白, SARS-CoV-2 BQ.1 (SARS-CoV-2 BQ.1); remark: listed apart in the source
S蛋白, SARS-CoV-2 BQ.1.1 [14] = biological target: S蛋白, SARS-CoV-2 BQ.1.1 (SARS-CoV-2 BQ.1.1); remark: listed apart in the source
S蛋白, SARS-CoV-2 XBB [15] = biological target: S蛋白, SARS-CoV-2 XBB (SARS-CoV-2 XBB); remark: listed apart in the source
S蛋白, SARS-CoV-2 XBB.1.5 [16] = biological target: T2, S蛋白, SARS-CoV-2 XBB.1.5; remark: listed apart in the source
S蛋白, SARS-CoV-2 XBB.1.16 = S蛋白, SARS-CoV-2 XBB.1.16 (SARS-CoV-2 XBB.1.16)
S蛋白, SARS-CoV-2 EG.5突变株 = S蛋白, SARS-CoV-2 EG.5突变株 (SARS-CoV-2 EG.5)

Binder | 假病毒中和活性 IC50 (S蛋白, SARS-CoV-2 Delta) | 假病毒中和活性 IC50 (S蛋白, SARS-CoV-2 BA.1 [1]) | 假病毒中和活性 IC50 (S蛋白, SARS-CoV-2 BA.2.75 [2]) | 假病毒中和活性 IC50 (S蛋白, SARS-CoV-2 BA.4/5 [3]) | 假病毒中和活性 IC50 (S蛋白, SARS-CoV-2 BF.7 [4]) | 假病毒中和活性 IC50 (S蛋白, SARS-CoV-2 BQ.1 [5]) | 假病毒中和活性 IC50 (S蛋白, SARS-CoV-2 BQ.1.1 [6]) | 假病毒中和活性 IC50 (S蛋白, SARS-CoV-2 XBB [7]) | 假病毒中和活性 IC50 (S蛋白, SARS-CoV-2 XBB.1.5 [8]) | 假病毒中和效果 IC50 (S蛋白, SARS-CoV-2 BA.1 [9]) | 假病毒中和效果 IC50 (S蛋白, SARS-CoV-2 BA.1.1) | 假病毒中和效果 IC50 (S蛋白, SARS-CoV-2 BA.2) | 假病毒中和效果 IC50 (S蛋白, SARS-CoV-2 BA.2.75 [10]) | 假病毒中和效果 IC50 (S蛋白, SARS-CoV-2 BA.3) | 假病毒中和效果 IC50 (S蛋白, SARS-CoV-2 BA.4/5 [11]) | 假病毒中和效果 IC50 (S蛋白, SARS-CoV-2 BF.7 [12]) | 假病毒中和效果 IC50 (S蛋白, SARS-CoV-2 BQ.1 [13]) | 假病毒中和效果 IC50 (S蛋白, SARS-CoV-2 BQ.1.1 [14]) | 假病毒中和效果 IC50 (S蛋白, SARS-CoV-2 XBB [15]) | 假病毒中和效果 IC50 (S蛋白, SARS-CoV-2 XBB.1.5 [16]) | also measured
CoV56单抗 (antibody, V domains shown) VH: EVQLVESGGGVVQPGGSLRLSCAVSGFTFDDYAMHWVRQAPGKGLDWVSLISGDGSYTYYADSVKGRFTISRDSSKNSLYLQMNSLRTEDTALYYCAKAQTPTLWWLQDAFDIWGQGTMVTVSS VL: not shown | > 2 µg/mL | > 2 µg/mL | > 2 µg/mL | > 2 µg/mL | > 2 µg/mL | > 2 µg/mL | > 2 µg/mL | > 2 µg/mL | > 2 µg/mL | 14.8 µg/mL | 10.8 µg/mL | 8.32 µg/mL | 58.8 µg/mL | 18.5 µg/mL | 7.53 µg/mL | 11.7 µg/mL | 19.6 µg/mL | 15.9 µg/mL | 15.9 µg/mL | 11.8 µg/mL | 假病毒中和效果 IC50 (S蛋白, SARS-CoV-2 XBB.1.16): 21.7 µg/mL; 假病毒中和效果 IC50 (S蛋白, SARS-CoV-2 EG.5突变株): 13.6 µg/mL
L4.65单抗 (antibody, V domains shown) VH: QITLKESGPTLVKPTQTLTLTCTFSGFSLSTSGVGVAWIRQPPGKALEWLALIYWDNDKRSSPSLNNRLTITKDTSKNQVVLTMTNMDPEDTATYYCAHFFSHYDSSNYYYGSWFDPWGQGTLVTVSS VL: EIVLTQSPGTLSLSPGERATLSCRASQSFDSRYLGWYQQKSGQAPRLLIYGASSRATGIPDRFSGSGSGTDFTLTISRLEPEDFAVYYCQQFGDSPFTFGQGTKLEIKR | 0.00252 µg/mL | 0.00135 µg/mL | 0.0112 µg/mL | 0.00138 µg/mL | 0.00212 µg/mL | > 2 µg/mL | > 2 µg/mL | 0.0214 µg/mL | 0.0541 µg/mL | 0.000394 µg/mL | 0.00028 µg/mL | 0.00039 µg/mL | 0.00194 µg/mL | 0.00044 µg/mL | 0.000377 µg/mL | 0.000446 µg/mL | 2.09 µg/mL | 4.58 µg/mL | 0.00335 µg/mL | 0.0137 µg/mL | 假病毒中和效果 IC50 (S蛋白, SARS-CoV-2 XBB.1.16): 0.0103 µg/mL; 假病毒中和效果 IC50 (S蛋白, SARS-CoV-2 EG.5突变株): 0.0521 µg/mL

— patent publication CN117603358A (INST MICROBIOLOGY CAS; 3SBIO GROUP; SHANXI ADVANCED …, dated 2024)
